Earlier results on five substances are cited in publication doi:10.1101/2025.09.11.675682.

Assay in all cases: ITC
Settings in all cases: cited from earlier work

Data set [1] deals with SLP-76 157-420 (Homo sapiens) (UniProt Q13094).
The target of data set [2] is LAT 161-180 (Homo sapiens) (UniProt O43561).
For data set [3], the target named is LAT 125-178 (Homo sapiens) (UniProt O43561).
Data set [4] addresses LAT 122-140 (Homo sapiens) (UniProt O43561).
Another data set addresses LAT (Homo sapiens) (UniProt O43561).
For data set [5], the target named is SLP-76 159-533 (Homo sapiens) (UniProt Q13094).
SLP-76 159-533 (Homo sapiens), sequence (Q13094 159-533): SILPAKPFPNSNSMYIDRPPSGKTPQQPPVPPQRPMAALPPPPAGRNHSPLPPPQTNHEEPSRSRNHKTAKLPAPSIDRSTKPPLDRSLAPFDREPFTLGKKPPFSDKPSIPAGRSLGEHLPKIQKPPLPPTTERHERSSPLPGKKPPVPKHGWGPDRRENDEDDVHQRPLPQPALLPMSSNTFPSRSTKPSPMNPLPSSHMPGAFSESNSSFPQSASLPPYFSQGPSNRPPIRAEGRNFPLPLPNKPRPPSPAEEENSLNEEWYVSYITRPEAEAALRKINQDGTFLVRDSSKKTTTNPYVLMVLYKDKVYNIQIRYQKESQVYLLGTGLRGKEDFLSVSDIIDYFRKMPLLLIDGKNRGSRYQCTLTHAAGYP

Gads 1-322 (from UniProt O89100), sequence (O89100 whole entry): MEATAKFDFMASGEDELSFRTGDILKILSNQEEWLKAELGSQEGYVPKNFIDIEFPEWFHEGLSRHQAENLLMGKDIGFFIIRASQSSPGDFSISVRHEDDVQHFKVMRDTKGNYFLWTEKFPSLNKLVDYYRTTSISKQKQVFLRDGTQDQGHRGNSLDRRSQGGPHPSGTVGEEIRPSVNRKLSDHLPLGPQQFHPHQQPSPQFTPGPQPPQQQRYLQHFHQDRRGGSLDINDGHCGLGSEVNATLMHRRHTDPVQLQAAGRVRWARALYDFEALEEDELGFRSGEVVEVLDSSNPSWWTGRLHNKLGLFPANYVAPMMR
SLP-76 157-420 (Homo sapiens), sequence (Q13094 157-420): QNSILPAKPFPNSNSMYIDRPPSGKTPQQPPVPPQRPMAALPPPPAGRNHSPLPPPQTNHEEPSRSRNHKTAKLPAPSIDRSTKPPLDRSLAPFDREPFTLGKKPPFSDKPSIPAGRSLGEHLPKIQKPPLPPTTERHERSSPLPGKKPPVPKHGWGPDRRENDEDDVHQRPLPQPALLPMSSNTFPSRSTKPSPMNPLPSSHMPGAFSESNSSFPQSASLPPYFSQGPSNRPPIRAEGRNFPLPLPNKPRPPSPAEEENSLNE
PLC-γ1 550-846, sequence (P19174 550-846): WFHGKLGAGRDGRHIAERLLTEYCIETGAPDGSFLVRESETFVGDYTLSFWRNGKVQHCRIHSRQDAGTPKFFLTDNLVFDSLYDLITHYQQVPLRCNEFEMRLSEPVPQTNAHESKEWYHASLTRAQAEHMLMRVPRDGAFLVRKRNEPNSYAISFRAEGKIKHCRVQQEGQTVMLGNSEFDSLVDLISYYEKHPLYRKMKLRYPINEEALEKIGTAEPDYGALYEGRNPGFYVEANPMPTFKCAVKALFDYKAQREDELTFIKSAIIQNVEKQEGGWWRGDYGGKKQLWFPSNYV
Gads 1-322 (from UniProt O75791), sequence (O75791 1-322): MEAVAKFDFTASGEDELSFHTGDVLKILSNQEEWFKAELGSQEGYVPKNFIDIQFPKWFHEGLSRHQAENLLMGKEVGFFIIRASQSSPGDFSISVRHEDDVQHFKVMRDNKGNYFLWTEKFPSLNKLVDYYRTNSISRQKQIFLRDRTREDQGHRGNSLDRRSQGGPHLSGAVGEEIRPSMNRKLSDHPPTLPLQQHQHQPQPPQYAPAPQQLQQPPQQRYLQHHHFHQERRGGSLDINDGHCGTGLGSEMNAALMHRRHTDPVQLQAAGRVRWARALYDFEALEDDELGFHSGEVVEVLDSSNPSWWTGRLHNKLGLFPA
LAT 125-178 (Homo sapiens), sequence (O43561 125-178): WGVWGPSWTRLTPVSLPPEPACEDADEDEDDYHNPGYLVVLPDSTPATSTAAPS
PLC-γ1 1-1219, sequence (P19174 1-1219): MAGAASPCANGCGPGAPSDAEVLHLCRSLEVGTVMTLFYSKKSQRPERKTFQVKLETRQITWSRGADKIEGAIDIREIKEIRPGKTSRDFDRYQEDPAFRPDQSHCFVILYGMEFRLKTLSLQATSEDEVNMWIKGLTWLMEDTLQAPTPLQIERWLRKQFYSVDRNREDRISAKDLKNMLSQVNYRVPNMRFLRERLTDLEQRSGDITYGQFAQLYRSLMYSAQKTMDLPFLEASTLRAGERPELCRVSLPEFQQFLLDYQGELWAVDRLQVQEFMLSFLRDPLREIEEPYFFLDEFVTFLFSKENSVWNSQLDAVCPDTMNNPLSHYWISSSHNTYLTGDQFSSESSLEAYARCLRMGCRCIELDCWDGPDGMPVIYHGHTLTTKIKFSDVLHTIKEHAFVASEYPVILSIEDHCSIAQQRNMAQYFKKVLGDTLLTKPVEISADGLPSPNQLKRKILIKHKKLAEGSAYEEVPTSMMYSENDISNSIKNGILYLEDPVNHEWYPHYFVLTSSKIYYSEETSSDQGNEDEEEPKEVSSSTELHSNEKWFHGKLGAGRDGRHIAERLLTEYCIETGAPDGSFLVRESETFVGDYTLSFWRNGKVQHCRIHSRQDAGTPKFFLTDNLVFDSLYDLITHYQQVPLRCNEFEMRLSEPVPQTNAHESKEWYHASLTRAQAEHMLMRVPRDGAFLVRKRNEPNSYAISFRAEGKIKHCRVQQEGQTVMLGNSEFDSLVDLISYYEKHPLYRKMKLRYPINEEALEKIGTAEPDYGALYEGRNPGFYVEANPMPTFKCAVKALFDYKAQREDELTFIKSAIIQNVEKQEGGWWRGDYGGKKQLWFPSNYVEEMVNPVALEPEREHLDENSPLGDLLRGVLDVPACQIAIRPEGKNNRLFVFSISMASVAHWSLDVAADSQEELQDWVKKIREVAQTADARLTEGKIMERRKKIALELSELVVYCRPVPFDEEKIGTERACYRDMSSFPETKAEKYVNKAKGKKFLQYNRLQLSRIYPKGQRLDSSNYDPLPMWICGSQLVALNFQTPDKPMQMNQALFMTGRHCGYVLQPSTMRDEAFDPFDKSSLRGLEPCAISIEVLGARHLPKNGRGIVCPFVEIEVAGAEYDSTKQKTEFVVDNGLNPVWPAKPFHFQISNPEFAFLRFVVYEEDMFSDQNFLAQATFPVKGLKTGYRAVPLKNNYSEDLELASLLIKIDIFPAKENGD
LAT 161-180 (Homo sapiens), sequence (O43561 161-180): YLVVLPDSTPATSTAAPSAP
PLC-γ1, sequence (P19174 2-1290): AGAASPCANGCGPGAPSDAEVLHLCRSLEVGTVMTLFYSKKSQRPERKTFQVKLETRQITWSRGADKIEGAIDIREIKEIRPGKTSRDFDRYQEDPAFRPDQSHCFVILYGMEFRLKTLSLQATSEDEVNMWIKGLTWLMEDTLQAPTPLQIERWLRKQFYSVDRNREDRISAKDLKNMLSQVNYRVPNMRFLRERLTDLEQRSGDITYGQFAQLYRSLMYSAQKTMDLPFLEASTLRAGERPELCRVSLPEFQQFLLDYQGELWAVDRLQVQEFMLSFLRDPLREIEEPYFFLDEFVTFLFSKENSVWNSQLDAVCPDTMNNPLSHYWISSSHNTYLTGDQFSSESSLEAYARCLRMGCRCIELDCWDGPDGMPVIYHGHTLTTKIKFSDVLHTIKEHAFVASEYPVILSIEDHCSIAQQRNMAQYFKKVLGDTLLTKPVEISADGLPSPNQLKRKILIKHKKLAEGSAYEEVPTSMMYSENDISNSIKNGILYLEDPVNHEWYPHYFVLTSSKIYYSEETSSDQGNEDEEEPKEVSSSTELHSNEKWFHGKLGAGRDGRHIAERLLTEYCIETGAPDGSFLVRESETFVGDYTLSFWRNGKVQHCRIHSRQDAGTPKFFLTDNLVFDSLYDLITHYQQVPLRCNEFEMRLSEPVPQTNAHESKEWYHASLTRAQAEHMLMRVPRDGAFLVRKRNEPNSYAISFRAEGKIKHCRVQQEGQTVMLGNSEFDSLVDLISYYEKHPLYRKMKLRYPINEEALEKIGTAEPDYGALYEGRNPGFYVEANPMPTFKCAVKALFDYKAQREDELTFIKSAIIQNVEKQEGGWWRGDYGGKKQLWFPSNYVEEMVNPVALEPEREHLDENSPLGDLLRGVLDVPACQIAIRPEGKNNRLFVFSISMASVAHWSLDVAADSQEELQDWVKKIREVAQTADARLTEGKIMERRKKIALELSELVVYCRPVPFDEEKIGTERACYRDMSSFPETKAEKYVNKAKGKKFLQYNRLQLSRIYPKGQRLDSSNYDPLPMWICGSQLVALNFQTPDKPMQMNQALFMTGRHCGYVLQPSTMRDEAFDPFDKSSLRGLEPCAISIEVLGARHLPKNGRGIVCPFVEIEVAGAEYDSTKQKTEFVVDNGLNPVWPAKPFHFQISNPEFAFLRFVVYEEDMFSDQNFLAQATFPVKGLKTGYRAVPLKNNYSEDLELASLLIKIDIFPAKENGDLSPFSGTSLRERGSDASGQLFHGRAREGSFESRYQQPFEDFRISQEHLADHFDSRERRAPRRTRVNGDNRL

Consider Gads 1-322 (from UniProt O75791), for which the dissociation constant Kd (in general, the constant that tells how readily two partners part at equilibrium) in data set [1] is 0.019 µM; in data set [2], 0.164 µM.

For the substance PLC-γ1 1-1219 (from UniProt P19174), the Kd in data set [3] was 0.084 µM.

On to PLC-γ1 550-846 (from UniProt P19174), for which the Kd in data set [1] was 3.35 µM; in data set [4], 0.062 µM.

Take PLC-γ1 (from UniProt P19174): the dissociation constant Kd in data set [1] is 3.35 µM.

For the substance Gads 1-322 (from UniProt O89100), the Kd in data set [1] was 0.019 µM; in data set [3] it was 0.213 µM; with LAT (Homo sapiens), 0.164 µM; in data set [5], 0.0036 µM.
